According to article PMC3531269:

How the values were obtained:
[1] = target: HIV-1 HXB2 Env (gp120/gp41) expressed on the surface of CHO-WT cells (HIV-1 HXB2) (UniProt P04578)
[2] = target: N-peptide N36 (aa 546-581 of HIV-1 HXB2 gp41 NHR) (HIV-1 HXB2) (UniProt P04578); assay: ELISA

“2DLT (bivalent recombinant protein: D1D2 domain of CD4 linked to T1144 by a 35-mer linker) (designed binder)” gave an IC50 of HIV-1 replication, Bal (B, R5) [1] of 10.8 nM, an IC50 of HIV-1 replication, IIIB (B, X4) [1] of 5.64 nM and an IC50 of HIV-1 replication, primary isolate 92TH009 (E/A, R5) [1] of 17.5 nM. It also gave an IC50 of HIV-1 replication, primary isolate 92US657 (B, R5) [1] of 17.2 nM, an IC50 of HIV-1 replication, primary isolate 93 MW959 (C, R5) [1] of 18.9 nM and an IC90 of HIV-1 replication, Bal (B, R5) [1] of 44.4 nM. It also gave an IC90 of HIV-1 replication, IIIB (B, X4) [1] of 28.8 nM, an IC90 of HIV-1 replication, primary isolate 92TH009 (E/A, R5) [1] of 71.9 nM and an IC90 of HIV-1 replication, primary isolate 92US657 (B, R5) [1] of 51.9 nM. For the same substance, the IC90 of HIV-1 replication, primary isolate 93 MW959 (C, R5) [1] was 48.9 nM and the IC50 [2] was 500 nM.

With “T1144 (C-peptide, next generation HIV fusion inhibitor)” the IC50 of HIV-1 replication, Bal (B, R5) [1] was 4.03 nM, the IC50 of HIV-1 replication, IIIB (B, X4) [1] was 2.13 nM and the IC50 of HIV-1 replication, primary isolate 92TH009 (E/A, R5) [1] was 1.36 nM. For the same substance, the IC50 of HIV-1 replication, primary isolate 92US657 (B, R5) [1] was 13.2 nM, the IC50 of HIV-1 replication, primary isolate 93 MW959 (C, R5) [1] was 2.35 nM and the IC90 of HIV-1 replication, Bal (B, R5) [1] was 28.1 nM. For the same substance, the IC90 of HIV-1 replication, IIIB (B, X4) [1] was 35.2 nM, the IC90 of HIV-1 replication, primary isolate 92TH009 (E/A, R5) [1] was 6.21 nM and the IC90 of HIV-1 replication, primary isolate 92US657 (B, R5) [1] was 42.3 nM. The IC90 of HIV-1 replication, primary isolate 93 MW959 (C, R5) [1] was 16.2 nM.
